Reference: paper PMC6306002

Test system: T1, OhsR-SSM (S-mycothiolated OhsR) (Corynebacterium glutamicum), ORF:a3d30e29
T1 sequence: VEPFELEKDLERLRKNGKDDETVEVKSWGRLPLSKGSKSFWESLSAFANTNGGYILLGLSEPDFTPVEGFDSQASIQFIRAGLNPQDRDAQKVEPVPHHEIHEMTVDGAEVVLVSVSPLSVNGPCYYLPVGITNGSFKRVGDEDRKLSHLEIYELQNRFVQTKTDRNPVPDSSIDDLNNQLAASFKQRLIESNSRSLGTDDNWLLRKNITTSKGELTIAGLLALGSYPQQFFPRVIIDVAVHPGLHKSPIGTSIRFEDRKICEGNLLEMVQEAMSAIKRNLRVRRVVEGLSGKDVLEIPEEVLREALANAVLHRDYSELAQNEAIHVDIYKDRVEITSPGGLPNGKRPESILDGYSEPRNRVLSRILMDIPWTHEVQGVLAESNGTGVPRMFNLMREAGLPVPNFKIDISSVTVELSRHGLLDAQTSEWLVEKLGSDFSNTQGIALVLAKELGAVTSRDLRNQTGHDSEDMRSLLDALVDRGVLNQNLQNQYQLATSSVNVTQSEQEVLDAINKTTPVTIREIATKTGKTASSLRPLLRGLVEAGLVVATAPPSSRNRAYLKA
Test: EMSA
Settings: EMSA: 20 mM Tris-HCl pH 7.4, 4 mM MgCl2, 100 mM NaCl, 10% glycerol, room temperature 30 min; 20 ng DNA, 0-4 ug OhsR; 6% native PAGE, 0.5x TBE, SYBR Green

CACCTTGTTGGTGGGCCGGGATTTTTGTTGTTTAGATTTTTGAAAGCACACTTTTGTCCCTTAACTAGTGCGTGTGTACATTCGACACCAAGATTTGGGCAATATGGTGCCCAAAATCAGGAAATCTTGCTGTCTAATGCACAACGGAAAACTGCTCACGGACGAACTAGTTGTAGCGAGCGTATTCTTTGTGTTCTCTC (double strand) [Pohr (ohr promoter, 200 bp)]
binding: binds
